Measurements: patent US8318488

Tests used:
Assay in all cases: cell-based or functional assay
[1] = target: endothelin receptor A (ETA) (UniProt Q61614)
[2] = target: endothelin receptor B (ETB) (UniProt P48302)
[3] = target: calcium/calmodulin-dependent protein phosphatase calcineurin

Sequence of endothelin receptor A (ETA) (Q61614 21-427 limits assumed): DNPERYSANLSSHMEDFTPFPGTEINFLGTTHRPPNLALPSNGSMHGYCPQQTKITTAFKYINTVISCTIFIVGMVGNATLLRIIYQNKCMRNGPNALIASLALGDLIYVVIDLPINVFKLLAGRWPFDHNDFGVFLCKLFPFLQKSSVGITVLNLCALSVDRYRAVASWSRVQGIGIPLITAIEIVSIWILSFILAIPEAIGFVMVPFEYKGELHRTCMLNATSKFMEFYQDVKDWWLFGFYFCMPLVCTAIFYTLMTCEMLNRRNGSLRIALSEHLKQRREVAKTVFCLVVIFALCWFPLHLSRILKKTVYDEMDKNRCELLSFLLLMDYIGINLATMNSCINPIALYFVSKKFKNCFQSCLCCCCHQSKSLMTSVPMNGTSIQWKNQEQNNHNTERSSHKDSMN
Sequence of endothelin receptor B (ETB) (P48302 27-442 limits assumed): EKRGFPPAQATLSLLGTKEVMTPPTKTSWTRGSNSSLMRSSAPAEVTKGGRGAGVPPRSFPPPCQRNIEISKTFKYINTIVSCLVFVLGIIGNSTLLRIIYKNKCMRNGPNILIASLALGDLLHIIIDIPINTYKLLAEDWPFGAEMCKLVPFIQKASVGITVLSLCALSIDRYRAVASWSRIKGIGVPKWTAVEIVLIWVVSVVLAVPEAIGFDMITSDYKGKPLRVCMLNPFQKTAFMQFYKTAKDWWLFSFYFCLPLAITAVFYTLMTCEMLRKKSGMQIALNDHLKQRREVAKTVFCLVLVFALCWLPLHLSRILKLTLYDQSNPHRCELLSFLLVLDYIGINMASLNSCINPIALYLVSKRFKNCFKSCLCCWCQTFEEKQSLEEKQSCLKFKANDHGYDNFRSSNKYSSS

Substance: BQ-123 (peptide)
- ANF expression (RT-PCR) after ET-1 stimulation, relative to ET-1 without compound (100%); BQ123 1 µM [1]: 50%
- BNP expression (RT-PCR) after ET-1 stimulation, relative to ET-1 without compound (100%); BQ123 1 µM [1]: 60%

Substance: BQ-788 (peptide)
- ANF expression (RT-PCR) after ET-1 stimulation, relative to ET-1 without compound (100%); BQ788 1 µM [2]: 70%
- BNP expression (RT-PCR) after ET-1 stimulation, relative to ET-1 without compound (100%); BQ788 1 µM [2]: 70%

Substance: Cyclosporin A (peptide)
- ANF expression (RT-PCR) after ET-1 stimulation, relative to ET-1 without compound (100%); cyclosporin A 1 µg/ml [3]: 70%
- ANF expression (RT-PCR) after PE stimulation, relative to PE without compound (100%); cyclosporin A 1 µg/ml [3]: 70%
- BNP expression (RT-PCR) after ET-1 stimulation, relative to ET-1 without compound (100%); cyclosporin A 1 µg/ml [3]: 50%
- BNP expression (RT-PCR) after PE stimulation, relative to PE without compound (100%); cyclosporin A 1 µg/ml [3]: 70%
